# System: MS2 coat protein
# Experiment: apparent KD of MS2 coat protein; higher = weaker reporter binding
# Settings: Eterna round: R107
# How it was run: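 Apparent KD is reported per design as the median of normalised binding-curve fits across its clusters. The RNA switches were made by on-chip transcription from Illumina sequencing clusters. SNAP-549-labelled MS2 coat protein was then added in twofold steps (0.7 or 1.5 nM to 3 µM; 0.8–1.5 h to 10–20 min per step) in 100 mM Tris-HCl pH 7.5, 80 mM KCl, 4 mM MgCl2, without or with constant ligand.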
# [1] = input ligand: theophylline 20 uM
# [2] = input ligand: theophylline 2 mM
# [3] = input ligand: tryptophan 2.4 mM
Sequence,apparent KD of MS2 coat protein (input ligand: arginine 13.2 mM) [nM],apparent KD of MS2 coat protein [1] [nM],apparent KD of MS2 coat protein [2] [nM],apparent KD of MS2 coat protein [3] [nM],apparent KD of MS2 coat protein (input ligand: none) [nM]
AAUUAUCAGUCGGCCGCCACUGACACAUGAGGAUCACCCAUGUAACUUGGGUUAAAUUUACUGAACAGGACCGGGACAAAGGCUA [JR_ExcTryptoB_Sub009],114,193,203,,
AACAUGAGGAUCACCCAUGUAAUAUGGGAUACCAGAGACGAAAGUCUCCCUUGGCAGCCCAAGCUGCUCCAUACGAAAGUAUGGU [Theophylline A 16],50.5,43.7,,64.7,
ACUACGAAGACGGCCGCCACUGAUAUUCGUAGAUCCAUCAAUACAUGAGGAUCACCCAUGUAUAUCAGGACCGGGUCAAGAUGGU [Tryp B Ex t6],23.3,39.2,28.2,,
AGACAUGAGGAUCACCCAUGUAGUACGGAUACCAGAUCCAGAUGCAUCCCUUGGCAGCUGUGGUACAGCGUUACAUCGCUCGUAG [Exclusion - Theophylline A (Freestyle 22)],17,23.9,,18.8,
GUAUUUAUAUGAAGGAGCGUCGAAAAUGGGUAAACAUGAGGAUCACCCAUGUAAAGGGAACGACAGGUAGGUCGCAUAUGGAUAC [AstromonsSSArgB#25],111,251,279,239,160
AGUCUUGUAGGAAGGAGCGCAUACUUCACAUGAGGAUCACCCAUGUCAAGACGUGAGUCAGUGCAGGUAGGUCGCCUAACUAAGA [Same State - Arginine B (Freestyle 14)],18.6,28.7,26.3,18,17.3
GAGCGCGUGGACUGGCGUGCUCCGCUCCGUCGAGGACCGGUACGGCCGCCACUCGACAUGAGGAUCACCCAUGUGUGCGCUCGCG [#1 Exclusion - Tryptophan A Attempt #19 (HarryS)],32.9,210,317,,
UUAGAUAUGACAGAUACCAGCGUGUUGUAGAACAUGAGGAUCACCCAUGUAGUGAUCAAGCGCCCUUGGCAGCUGGUAUGUUUGG [7.X],61.5,277,,179,
ACCUAAGCCACAGAUACCAGAGUAAUAGGCCAAUUUCAAAACAUGAGGAUCACCCAUGUACUCCCUUGGCAGCUGCGAAUCGAAA [theeternabot_exclusion_MS2_Theo_B_30],11.1,13.6,,10.3,
GGACUAACCUGAAGGAGCGACGCGCAGAAACUGCAAUUUCCUCCACACGAGGAUCACCCGUGUCAGGUAGGUCGCAGGUUAGUCG [ArgBX 29],13.1,18.3,15.4,15.3,14.1
UGUAUGGACUGAAGGAGCGCCUCAAAAUAACAUGAGGAUCACCCAUGUAAGGCGAAAGCCGGGCAGGUAGGUCGCAGUCCAUACU [ArgBX 3 #StaticStem #MS2Late],15.8,16.1,17,12.7,11.2
CAUCCUAGUACAUGAGGAUCACCCAUGUAUCGAGGACCGGUACGGCCGCCACUCGAAUGGCGGAUCGUUGAUCCUUUAGGAUGAA [Tryp A Ex t4],16.5,20.7,20.9,19.2,14.3
AUAACAUGAGGAUCACCCAUGUAUUGGUAACGAGGACCGGUACGGCCGCCACUCGUAUUUUGGUGGUAUUAUAUAUAUAUGAUUA [JR_SSTryptoA_Sub017],24.1,28.9,20.6,,
AUGUCGUUGAAUAUAGCGGCUUGGAGUGAUACCAGCAUGAUCCAAUGCCCUUGGCAGCAUAACAUGAGGAUCACCCAUGUUCCAG [SSTheo A #26],32.7,68.7,,30.1,
UUGUGGCGCUCGGCCGCCACUCCGACAUGAGGAUCACCCAUGUUCUACAUGAGGAUCACCCAUGUGAGGACCGGGAGACACUUCC [Exclusion Tryptophan B GF13],53,109,116,,
ACAUGUCUUAUAGAUACCAGACAGGACAUGAGGAUCACCCAUGUAAUGUAUACAUGCAGAGUCCCUUGGCAGCUAAGGUCAUAGA [#26 Same State - Theophylline B],54.6,110,,92.8,
UGUAUGGACUGAAGGAGCGCCUCAAAAUAACAUGAGGAUCACCCAUGUGGCGAAAGCCAAGGGCAGGUAGGUCGCAGUCCAUACU [ArgBX 4 #StaticStem #MS2Late],27.3,34.2,32.9,32,26.4
GGCACCAGGAGAAGGAGCGUGAAGACAUGAGGAUCACCCAUGUAGAGGCGCCGACGGCGUUCGCAGGUAGGUCGCUCCUGGUGCC [#1 Same State - Arginine B Attempt #16 (HarryS)],20.9,32.3,23.5,29.3,21
ACAAGGACAUGAGGAUCACCCAUGUGGGAAGGAGCGCAUAAAUAUGCAGGUAGGUCGCCCGGCGUGAUAUUUAAUAUUUUAAUAA [Exclusion - Arginine A],34,79.4,73.5,60.2,55.7
UGUAUGUGAUCUGAUACCAGAGAUGAUAACCUGAGGAUCACCCUGGUAAGGCGAAAGCCACUCCCUUGGCAGCAGAUCGCAUACU,48.3,40.7,26.3,39,34.4
UGUAUGGACUGAAGGAGCGGGUAAUAAAUCUGAGGAUCACCCAGGUAAUAGGCGAAAGCCGCCCAGGUAGGUCGCAGUCCAUACU,13.3,27.5,18.8,23.1,14.7
GAUGAACUAUUUGAUACCAGACUACAUGAGGAUCACCCAUGUGAGUUUAUACUUCUGUCAGUCCCUUGGCAGCAAAUAGUUUAUC [XTheo B #5],21.5,27.8,,16.4,
CGGUCGGUCGGCCGGUGAUUAUGGGAUGAAGGAGCGUGGGAAGCUACAGGUAGGUCGCAUCCGAAAGAUGAGGAUCACCCAUCUU [SSArg A #24Alt-Ms2 Mod],24.4,34.4,46.4,21.5,30.3
GGAUGCGGCACGGCCGCCACUGCGGUGGUGUGACAUGAGGAUCACCCAUGUUGUCAUGCGGCCCUUAGGACCGGGUGGCGUGUCC [#1 Exclusion - Tryptophan B Attempt #19 (HarryS)],37.2,57.4,56.3,,
ACAUGAGGAUCACCCAUGUGUGUAAAUCCUCGAGGACCGGUACGGCCGCCACUCGAACGAGUGUAAGUUGAAUGUAACAUUCAAC [SS Trp A v1],47.3,123,104,,
GCAAAGUGAUCGGCCGCCACUGCAAUGCUUAAUGGAGGUCCACAUGAGGAUCACCCAUGUCUUCCCAGGACCGGGAUCUCGAGUU [theeternabot_sameState_MS2_Trp_B_3],59,65.5,72.6,,
